Assay results: PMC5400565, “Real-time near-infrared fluorescence imaging using cRGD-ZW800-1 for intraoperative visualization of multiple cancer types” (Oncotarget, 2017)

Key:
[1] = Pharmacokinetics in mice without tumors; type: in vivo
Protocol: cRGD-ZW800-1 was diluted in 0.05 mM HEPES buffered mouse serum to the concentrations 5.00, 4.50, 4.00, 3.50, 3.00, 2.50, 2.00, 1.50, 1.00, 0.50, 0.25, 0.13, 0.06, 0.03, and 0.02 μM. A calibration curve was created by measuring each concentration in 60 μL capillary tubes (Hirschmann® Laborgeräte GmbH and co. KG, Eberstadt, Germany) using the FLARE® with exposure times of: 1, 2, 5, 10, 25, 50, 100, 200, 500, 1000, and 2000 msec. Data were plotted in fluorescence intensity over concentration (μM) (Supplementary Figure 2, Supplementary Data). For each exposure time, the formula of the linear regression line was calculated. Subsequently, 5 mice without tumors were injected with 10 nmol cRGD-ZW800-1 via the lateral tail vein. The contralateral lateral tail vein was used to draw blood on the time points -5, 1, 6, 10, 20, 30, 40, 50, 60, 90, 120, and 240 min. post injection. Blood samples were absorbed using 60 μL capillary tubes and immediately measured using the FLARE® with the same exposure times. Saturated images and those under the detection limit were excluded from analysis. Each measurement was calculated back to its concentration using the matching formulas (Supplementary Figure 3, Supplementary Data). The mean of each formula output was used as the concentration. Data was analyzed using NONMEM® software (Icon Development Solutions, Ellicott City, MD, U.S.A.). Data were plotted in logarithmic and linear concentration (μM) over time (min).

Serotonin 5-HT1A = molecular target: T1, Serotonin 5-HT1A (Homo sapiens, UniProt P08908); assay: Off-target screening (Eurofins Cerep), 5-HT1A; type: binding
T1 construct: Eurofins Cerep SA (contract screening)

Adrenergic α1A = molecular target: T2, Adrenergic α1A (Homo sapiens, UniProt P35348); assay: Off-target screening (Eurofins Cerep), α1A; type: binding
T2 construct: Eurofins Cerep SA (contract screening)
T2 sequence (P35348 1-466): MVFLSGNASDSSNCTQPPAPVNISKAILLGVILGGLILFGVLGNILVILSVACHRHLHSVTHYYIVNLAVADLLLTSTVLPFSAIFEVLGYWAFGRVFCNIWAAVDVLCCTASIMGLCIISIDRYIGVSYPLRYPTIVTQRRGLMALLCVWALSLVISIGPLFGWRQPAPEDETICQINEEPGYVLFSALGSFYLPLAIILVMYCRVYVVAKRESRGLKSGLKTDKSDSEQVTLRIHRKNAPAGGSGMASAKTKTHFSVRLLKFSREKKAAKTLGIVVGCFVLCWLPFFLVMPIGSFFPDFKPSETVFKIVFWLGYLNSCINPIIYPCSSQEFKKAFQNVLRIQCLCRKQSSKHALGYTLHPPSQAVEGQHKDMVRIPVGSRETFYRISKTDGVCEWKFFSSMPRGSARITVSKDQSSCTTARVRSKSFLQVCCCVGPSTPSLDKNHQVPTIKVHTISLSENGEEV
Source text: Off-target interactions are binding of tracers to other components on the cell surface than the actual target site. These non-specific interactions are often of low affinity and easily missed, but can have significant effects. We outsourced the screening for in vitro for off-target interactions of cRGD-ZW800-1 to Eurofins Cerep SA, Le bois l’Evêque, France. They assessed the percentage of inhibition of a reference compound in 44 selected targets, including G protein-coupled receptors (GPCRs), transporters, ion channels, nuclear receptors, kinases and other non-kinase enzymes. These targets were recommended by four major pharmaceutical companies. The complete list is included in Supplementary Table 1 of the Supplementary Data. Each assay was performed twice using 10 μM cRGD-ZW800-1 and a reference compound. Inhibition higher than 50% was considered to represent a significant effect of cRGD-ZW800-1. Results showing between 20% and 50% were considered weak to moderate effects, while lower than 20% was not considered significant and mostly attributable to variability of the signal around the control level.

[2] = mice, 10 nmol i.v., mean ± SD, n = 5
[3] = 10 μM, mean of 2, read-out: % of Control Specific Binding Mean

T1 sequence (P08908 whole entry): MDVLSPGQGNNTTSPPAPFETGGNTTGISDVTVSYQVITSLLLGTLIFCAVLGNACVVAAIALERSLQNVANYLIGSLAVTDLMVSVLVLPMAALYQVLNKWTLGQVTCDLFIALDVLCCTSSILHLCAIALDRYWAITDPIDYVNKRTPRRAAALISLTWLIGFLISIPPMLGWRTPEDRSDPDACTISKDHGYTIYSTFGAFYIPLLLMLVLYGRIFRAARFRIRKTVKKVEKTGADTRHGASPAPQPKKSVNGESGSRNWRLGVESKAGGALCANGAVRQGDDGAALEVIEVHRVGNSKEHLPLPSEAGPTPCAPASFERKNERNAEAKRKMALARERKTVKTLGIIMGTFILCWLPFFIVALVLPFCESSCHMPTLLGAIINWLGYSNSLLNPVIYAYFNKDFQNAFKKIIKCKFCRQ

CC1(C)C(/C=C/C2=C(Oc3ccc(CCC(=O)NCCCC[C@@H]4NC(=O)[C@@H](Cc5ccc(O)cc5)NC(=O)[C@H](CC(=O)O)NC(=O)CNC(=O)[C@H](CCCNC(=N)N)NC4=O)cc3)C(=C/C=C3/N(CCC[N+](C)(C)C)c4ccc(S(=O)(=O)O)cc4C3(C)C)/CCC2)=[N+](CCC[N+](C)(C)C)c2ccc(S(=O)(=O)O)cc21 [cRGD-ZW800-1]
Clearance ([1]; mice, 10 nmol i.v., mean systemic clearance ± SD, n = 5): 0.25 ± 0.06 mL/min | Distribution (α) half-life [1, 2]: 0.243 ± 0.0283 h | Terminal (β) half-life [1, 2]: 1.18 ± 0.157 h | maximal concentration in serum ([1]; mice, 10 nmol i.v., measured at 1 minute post injection, n = 5, fluorescence (FLARE) with calibration curve): 1.17 µM | AUC ([1]; mice, 10 nmol i.v., trapezoid rule, mean ± SD, n = 5): 38.9 ± 8.9 | Half-life ([1]; mice, blood, 10 nmol i.v., calculated via ln(2)/k10, mean ± SD, n = 5): 0.422 ± 0.107 h | Elimination (β) half-life ([1]; mouse no. 1): 1.08 h | Elimination (β) half-life ([1]; mouse no. 2): 1.42 h | Elimination (β) half-life ([1]; mouse no. 3): 1.14 h | Elimination (β) half-life ([1]; mouse no. 4): 1.25 h | Elimination (β) half-life ([1]; mouse no. 5): 1.03 h | inhibition at 10 µM (Serotonin 5-HT1A; 10 μM cRGD-ZW800-1, format H, Ag, performed twice, read-out: % Inhibition of Control Specific Binding): 9% | remaining activity at 10 µM (Serotonin 5-HT1A; [3]): 90.9% | inhibition at 10 µM (Adrenergic α1A; 10 μM cRGD-ZW800-1, format H, An, performed twice, read-out: % Inhibition of Control Specific Binding): 9% | remaining activity at 10 µM (Adrenergic α1A; [3]): 90.6%
